Values belong to the binder of their own block, whether it stands above or below them.
Tests used:
Test in all cases: alanine scan, flow cytometry;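 also: HEK293-T cells transiently expressing single-residue alanine mutants of CD33 (alanine swapped to serine), antibody binding read by fluorescence in duplicate, background-subtracted, expressed relative to wild-type CD33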
human CD33 W22A = human CD33 W22A (human, UniProt P20138 18-364)
human CD33 E85A = human CD33 E85A (human, UniProt P20138 18-364)
human CD33 E33A = human CD33 E33A (human, UniProt P20138 18-364)
human CD33 E84A = human CD33 E84A (human, UniProt P20138 18-364)
human CD33 H45A = human CD33 H45A (human, UniProt P20138 18-364)
human CD33 P72A = human CD33 P72A (human, UniProt P20138 18-364)
human CD33 I66A = human CD33 I66A (human, UniProt P20138 18-364)
human CD33 N20A = human CD33 N20A (human, UniProt P20138 18-364)
human CD33 V29A = human CD33 V29A (human, UniProt P20138 18-364)
human CD33 T75A = human CD33 T75A (human, UniProt P20138 18-364)
human CD33 K52A = human CD33 K52A (human, UniProt P20138 18-364)
human CD33 G58A = human CD33 G58A (human, UniProt P20138 18-364)
human CD33 R62A = human CD33 R62A (human, UniProt P20138 18-364)
human CD33 A74S = human CD33 A74S (human, UniProt P20138 18-364)
human CD33 V73A = human CD33 V73A (human, UniProt P20138 18-364)
human CD33 D70A = human CD33 D70A (human, UniProt P20138 18-364)
human CD33 Q24A = human CD33 Q24A (human, UniProt P20138 18-364)
human CD33 E63A = human CD33 E63A (human, UniProt P20138 18-364)
human CD33 V37A = human CD33 V37A (human, UniProt P20138 18-364)
human CD33 F43A = human CD33 F43A (human, UniProt P20138 18-364)
human CD33 T86A = human CD33 T86A (human, UniProt P20138 18-364)
human CD33 Y50A = human CD33 Y50A (human, UniProt P20138 18-364)
human CD33 P48A = human CD33 P48A (human, UniProt P20138 18-364)
human CD33 V31A = human CD33 V31A (human, UniProt P20138 18-364)
human CD33 E27A = human CD33 E27A (human, UniProt P20138 18-364)
human CD33 A65S = human CD33 A65S (human, UniProt P20138 18-364)
human CD33 S68A = human CD33 S68A (human, UniProt P20138 18-364)
human CD33 W60A = human CD33 W60A (human, UniProt P20138 18-364)
human CD33 I67A = human CD33 I67A (human, UniProt P20138 18-364)
human CD33 H57A = human CD33 H57A (human, UniProt P20138 18-364)
human CD33 T42A = human CD33 T42A (human, UniProt P20138 18-364)
human CD33 F21A = human CD33 F21A (human, UniProt P20138 18-364)
human CD33 C36A = human CD33 C36A (human, UniProt P20138 18-364)
human CD33 R69A = human CD33 R69A (human, UniProt P20138 18-364)
human CD33 L23A = human CD33 L23A (human, UniProt P20138 18-364)
human CD33 S54A = human CD33 S54A (human, UniProt P20138 18-364)
human CD33 V82A = human CD33 V82A (human, UniProt P20138 18-364)
human CD33 K77A = human CD33 K77A (human, UniProt P20138 18-364)
human CD33 Y59A = human CD33 Y59A (human, UniProt P20138 18-364)
human CD33 I47A = human CD33 I47A (human, UniProt P20138 18-364)
human CD33 N76A = human CD33 N76A (human, UniProt P20138 18-364)
human CD33 F61A = human CD33 F61A (human, UniProt P20138 18-364)
human CD33 F61A, sequence (P20138 18-364 F61A limits assumed): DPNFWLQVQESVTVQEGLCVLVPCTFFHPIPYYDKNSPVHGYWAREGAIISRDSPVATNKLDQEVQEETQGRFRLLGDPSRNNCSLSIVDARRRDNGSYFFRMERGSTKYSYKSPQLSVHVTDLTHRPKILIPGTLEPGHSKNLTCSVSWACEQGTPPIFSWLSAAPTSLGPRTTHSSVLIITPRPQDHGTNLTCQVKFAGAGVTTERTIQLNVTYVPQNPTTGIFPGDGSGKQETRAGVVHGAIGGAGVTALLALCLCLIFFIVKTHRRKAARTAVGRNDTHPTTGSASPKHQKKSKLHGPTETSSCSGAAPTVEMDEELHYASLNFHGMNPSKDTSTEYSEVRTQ

human CD33 F21A, sequence (P20138 18-364 F21A limits assumed): as the sequence (P20138 18-364 F61A limits assumed) above, with F4A, A44F counted along it
human CD33 R69A, sequence (P20138 18-364 R69A limits assumed): as the sequence (P20138 18-364 F61A limits assumed) above, with A44F, R52A counted along it
human CD33 S68A, sequence (P20138 18-364 S68A limits assumed): as the sequence (P20138 18-364 F61A limits assumed) above, with A44F, S51A counted along it
human CD33 W60A, sequence (P20138 18-364 W60A limits assumed): as the sequence (P20138 18-364 F61A limits assumed) above, with W43A, A44F counted along it
human CD33 V31A, sequence (P20138 18-364 V31A limits assumed): as the sequence (P20138 18-364 F61A limits assumed) above, with V14A, A44F counted along it
human CD33 N76A, sequence (P20138 18-364 N76A limits assumed): as the sequence (P20138 18-364 F61A limits assumed) above, with A44F, N59A counted along it
human CD33 E27A, sequence (P20138 18-364 E27A limits assumed): as the sequence (P20138 18-364 F61A limits assumed) above, with E10A, A44F counted along it
human CD33 V73A, sequence (P20138 18-364 V73A limits assumed): as the sequence (P20138 18-364 F61A limits assumed) above, with A44F, V56A counted along it
human CD33 I66A, sequence (P20138 18-364 I66A limits assumed): as the sequence (P20138 18-364 F61A limits assumed) above, with A44F, I49A counted along it
human CD33 S54A, sequence (P20138 18-364 S54A limits assumed): as the sequence (P20138 18-364 F61A limits assumed) above, with S37A, A44F counted along it
human CD33 T75A, sequence (P20138 18-364 T75A limits assumed): as the sequence (P20138 18-364 F61A limits assumed) above, with A44F, T58A counted along it
human CD33 C36A, sequence (P20138 18-364 C36A limits assumed): as the sequence (P20138 18-364 F61A limits assumed) above, with C19A, A44F counted along it
human CD33 H45A, sequence (P20138 18-364 H45A limits assumed): as the sequence (P20138 18-364 F61A limits assumed) above, with H28A, A44F counted along it

Mean % WT Binding (human CD33 W22A): 79.4 % WT
Mean % WT Binding (human CD33 E85A): 88.9 % WT
Mean % WT Binding (human CD33 E33A): 86.4 % WT
Mean % WT Binding (human CD33 E84A): 92.2 % WT
Mean % WT Binding (human CD33 H45A): 38.7 % WT
Mean % WT Binding (human CD33 P72A): 99.9 % WT
Mean % WT Binding (human CD33 I66A): 96.6 % WT
Mean % WT Binding (human CD33 N20A): 1.2 % WT
Mean % WT Binding (human CD33 V29A): 102 % WT
Mean % WT Binding (human CD33 T75A): 101 % WT
Mean % WT Binding (human CD33 K52A): 84.2 % WT
Mean % WT Binding (human CD33 G58A): 77.4 % WT
Mean % WT Binding (human CD33 R62A): 121 % WT
Mean % WT Binding (human CD33 A74S): 83.7 % WT
Mean % WT Binding (human CD33 V73A): 73.6 % WT
Mean % WT Binding (human CD33 D70A): 81.3 % WT
Mean % WT Binding (human CD33 Q24A): 74.1 % WT
Mean % WT Binding (human CD33 E63A): 107 % WT
Mean % WT Binding (human CD33 V37A): 78.7 % WT
Mean % WT Binding (human CD33 F43A): 66.3 % WT
Mean % WT Binding (human CD33 T86A): 79.1 % WT
Mean % WT Binding (human CD33 Y50A): 86 % WT
Mean % WT Binding (human CD33 P48A): 86.2 % WT
Mean % WT Binding (human CD33 V31A): 87 % WT
Mean % WT Binding (human CD33 E27A): 82.5 % WT
Mean % WT Binding (human CD33 A65S): 88.5 % WT
Mean % WT Binding (human CD33 S68A): 91.3 % WT
Mean % WT Binding (human CD33 W60A): 0.7 % WT
Mean % WT Binding (human CD33 I67A): 98.1 % WT
Mean % WT Binding (human CD33 H57A): 78.2 % WT
Mean % WT Binding (human CD33 T42A): 105 % WT
Mean % WT Binding (human CD33 F21A): 0.4 % WT
Mean % WT Binding (human CD33 C36A): 72.6 % WT
Mean % WT Binding (human CD33 R69A): 94.2 % WT
Mean % WT Binding (human CD33 L23A): 82.7 % WT
Mean % WT Binding (human CD33 S54A): 87.6 % WT
Mean % WT Binding (human CD33 V82A): 99.6 % WT
Mean % WT Binding (human CD33 K77A): 95.6 % WT
Mean % WT Binding (human CD33 Y59A): 93.6 % WT
Mean % WT Binding (human CD33 I47A): 84.2 % WT
Mean % WT Binding (human CD33 N76A): 61.8 % WT
Mean % WT Binding (human CD33 F61A): 95 % WT
B1: Refmab #1 (antibody, V domains shown)
VH: EVQLVQSGAEVKKPGSSVKVSCKASGYTITDSNIHWVRQAPGQSLEWIGYIYPYNGGTDYNQKFKNRATLTVDNPTNTAYMELSSLRSEDTAFYYCVNGNPWLAYWGQGTLVTVSS
VL: DIQLTQSPSTLSASVGDRVTITCRASESLDNYGIRFLTWFQQKPGKAPKLLMYAASNQGSGVPSRFSGSGSGTEFTLTISSLQPDDFATYYCQQTKEVPWSFGQGTKVEVK
notes: Full-length format is human IgG1 (Absolute Antibody Ab00283-10.0); The alanine scan used IgG or Fab; also called hP67.6

Mean % WT Binding (human CD33 W22A): 187 % WT
Mean % WT Binding (human CD33 E85A): 110 % WT
Mean % WT Binding (human CD33 E33A): 87.1 % WT
Mean % WT Binding (human CD33 E84A): 120 % WT
Mean % WT Binding (human CD33 H45A): 134 % WT
Mean % WT Binding (human CD33 P72A): 94.6 % WT
Mean % WT Binding (human CD33 I66A): 108 % WT
Mean % WT Binding (human CD33 N20A): 158 % WT
Mean % WT Binding (human CD33 V29A): 84.4 % WT
Mean % WT Binding (human CD33 T75A): 93.8 % WT
Mean % WT Binding (human CD33 K52A): 9.8 % WT
Mean % WT Binding (human CD33 G58A): 62.2 % WT
Mean % WT Binding (human CD33 R62A): 104 % WT
Mean % WT Binding (human CD33 A74S): 72.5 % WT
Mean % WT Binding (human CD33 V73A): 67.2 % WT
Mean % WT Binding (human CD33 D70A): 82.7 % WT
Mean % WT Binding (human CD33 Q24A): 68.3 % WT
Mean % WT Binding (human CD33 E63A): 84.1 % WT
Mean % WT Binding (human CD33 V37A): 78.7 % WT
Mean % WT Binding (human CD33 F43A): 7.8 % WT
Mean % WT Binding (human CD33 T86A): 103 % WT
Mean % WT Binding (human CD33 Y50A): 3.5 % WT
Mean % WT Binding (human CD33 P48A): 8.4 % WT
Mean % WT Binding (human CD33 V31A): 97.9 % WT
Mean % WT Binding (human CD33 E27A): 42.9 % WT
Mean % WT Binding (human CD33 A65S): 84 % WT
Mean % WT Binding (human CD33 S68A): 90.4 % WT
Mean % WT Binding (human CD33 W60A): 1 % WT
Mean % WT Binding (human CD33 I67A): 67.2 % WT
Mean % WT Binding (human CD33 H57A): 67.3 % WT
Mean % WT Binding (human CD33 T42A): 67.4 % WT
Mean % WT Binding (human CD33 F21A): 43.6 % WT
Mean % WT Binding (human CD33 C36A): 108 % WT
Mean % WT Binding (human CD33 R69A): 118 % WT
Mean % WT Binding (human CD33 L23A): 23.7 % WT
Mean % WT Binding (human CD33 S54A): 99.9 % WT
Mean % WT Binding (human CD33 V82A): 144 % WT
Mean % WT Binding (human CD33 K77A): 123 % WT
Mean % WT Binding (human CD33 Y59A): 97.6 % WT
Mean % WT Binding (human CD33 I47A): 144 % WT
Mean % WT Binding (human CD33 N76A): 34.7 % WT
Mean % WT Binding (human CD33 F61A): 131 % WT
B2: Refmab #4 (antibody, V domains shown)
VH: QVQLVQSGAEVKKPGESVKVSCKASGYTFTNYGMNWVKQAPGQGLEWMGWINTYTGEPTYADKFQGRVTMTTDTSTSTAYMEIRNLGGDDTAVYYCARWSWSDGYYVYFDYWGQGTSVTVSS
VL: DIVMTQSPDSLTVSLGERTTINCKSSQSVLDSSTNKNSLAWYQQKPGQPPKLLLSWASTRESGIPDRFSGSGSGTDFTLTIDSPQPEDSATYYCQQSAHFPITFGQGTRLEIK
notes: Full-length format is human IgG1 Fc silent (PG-LALA); The alanine scan used IgG or Fab

Mean % WT Binding (human CD33 W22A): 58.6 % WT
Mean % WT Binding (human CD33 E85A): 112 % WT
Mean % WT Binding (human CD33 E33A): 94.9 % WT
Mean % WT Binding (human CD33 E84A): 137 % WT
Mean % WT Binding (human CD33 H45A): 55.1 % WT
Mean % WT Binding (human CD33 P72A): 108 % WT
Mean % WT Binding (human CD33 I66A): 126 % WT
Mean % WT Binding (human CD33 N20A): 34.9 % WT
Mean % WT Binding (human CD33 V29A): 115 % WT
Mean % WT Binding (human CD33 T75A): 118 % WT
Mean % WT Binding (human CD33 K52A): 80.3 % WT
Mean % WT Binding (human CD33 G58A): 87.4 % WT
Mean % WT Binding (human CD33 R62A): 91.8 % WT
Mean % WT Binding (human CD33 A74S): 115 % WT
Mean % WT Binding (human CD33 V73A): 149 % WT
Mean % WT Binding (human CD33 D70A): 131 % WT
Mean % WT Binding (human CD33 Q24A): 101 % WT
Mean % WT Binding (human CD33 E63A): 124 % WT
Mean % WT Binding (human CD33 V37A): 150 % WT
Mean % WT Binding (human CD33 F43A): 49.3 % WT
Mean % WT Binding (human CD33 T86A): 112 % WT
Mean % WT Binding (human CD33 Y50A): 109 % WT
Mean % WT Binding (human CD33 P48A): 167 % WT
Mean % WT Binding (human CD33 V31A): 127 % WT
Mean % WT Binding (human CD33 E27A): 153 % WT
Mean % WT Binding (human CD33 A65S): 143 % WT
Mean % WT Binding (human CD33 S68A): 115 % WT
Mean % WT Binding (human CD33 W60A): 28.3 % WT
Mean % WT Binding (human CD33 I67A): 142 % WT
Mean % WT Binding (human CD33 H57A): 182 % WT
Mean % WT Binding (human CD33 T42A): 198 % WT
Mean % WT Binding (human CD33 F21A): 13.6 % WT
Mean % WT Binding (human CD33 C36A): 102 % WT
Mean % WT Binding (human CD33 R69A): 188 % WT
Mean % WT Binding (human CD33 L23A): 91.5 % WT
Mean % WT Binding (human CD33 S54A): 106 % WT
Mean % WT Binding (human CD33 V82A): 141 % WT
Mean % WT Binding (human CD33 K77A): 192 % WT
Mean % WT Binding (human CD33 Y59A): 145 % WT
Mean % WT Binding (human CD33 I47A): 165 % WT
Mean % WT Binding (human CD33 N76A): 148 % WT
Mean % WT Binding (human CD33 F61A): 304 % WT
B3: Refmab #3 (antibody, V domains shown)
VH: QVQLVQSGAEVKKPGSSVKVSCKASGYTFTDYNMHWVRQAPGQGLEWIGYIYPYNGGTGYNQKFKSKATITADESTNTAYMELSSLRSEDTAVYYCARGRPAMDYWGQGTLVTVSS
VL: DIQMTQSPSSLSASVGDRVTITCRASESVDNYGISFMNWFQQKPGKAPKLLIYAASNQGSGVPSRFSGSGSGTDFTLTISSLQPDDFATYYCQQSKEVPWTFGQGTKVEIK
notes: as for B2

— US20260242735A1 (UNIVERSIT T BASEL, published 2026)
